B1: 54 (protein, listed as Streptomyces sp.)
chain: MAKIIALEEHFSDPAVAKAGAARAQALSPGFAASYSPASGLPYSPSPEVLENLAEKRLADMDAGGITMQVLSGLGAQTVPADVAPALVAGSNDKAAAAVRAHPDRFAAFAALPTAAPEAAVAELDRSINELGFVGTLIMGRTEGEFLDAPRFEPILARAAALKVPVFLHPGVPPREITDSNYAAGLPTGIGTRLQTAAWGWHQETAVHFLHLVHSGVLDRYPGLQFILGHWGEMIPFYLDRVDEALPQRATGLDRSFHEYFRENVYLAPSGMWSQAQLRFCLETVPLERIVFAVDYPFIGNEGAVPFLEKAELPEADKRKIAHENAERLLGL
B2: 2 (protein, listed as Serratia sp.)
chain: MAKIICLEEHTLDKALVMASMPAALEQAPFLSDWGKTVTDGNLPDRSRPQIEKNDLINIKGADIGRGRLDDMDVAGITMQVLSVGGFPHLISAAEGVDLNRAANDRLADAVNAHPDRFAAFATLPWAQPDSAEKELERAVKELGFKGALLNGRPSTHFLDHPDYDGLLARFNALGVPLYLHPGLPVRSVQQAYYGGFSDEVTARLSMFGWGWHHEAGIHLLRLILSGAFDKYPNLQVISGHWGEMLPFWLQRLDDSLPQAATGLRRTIAQTFKEQVYVTPSGMLTLPHFQFIYALLGAERIIFSVDYPYQTLDGVKAFIQSLPVPEEAKEAIAFRNAERLLGLTS
B3: 55 (protein, listed as Serratia sp.)
chain: MAKIICLEEHTLDKALVMASMPAALEQAPFLSDWGKTVTDGNLPDRSRPQIEKNDLINIKGADIGRGRLDDMDVAGITMQVLSVGGFPHLISAAEGVDLNRAANDRLADAVNAHPDRFAAFATLPWAQPDSAEKELERAVKELGFKGALLNGRPSTHFLDHPDYDGLLARFNALGVPLYLHPGLPVRSVQQAYYGGFSDEVTARLSMFGWGWHHEAGIHLLRLILSGAFDKYPNLQVISGHWGEMLPFWLQRLDDSLPQAATGLRRTIAQTFKEQVYVTPSGMLTLPHFQFIYALLGAERIIFSVDYPYQTLDGVKAFIQSLPVPEEAKEAIAFRNAERLLGLTS
B4: 56 (protein)
chain: MAKIICLEEHYLDSELGRACMPVALEQAPFLGDWGKTVADGHNPDRSRPQIEKNALINAKGADLGSRRLRDMDEAGITLQILSVGGFPQLAPEDEAVTLNTAANDRLAEAVRNHPDRFAAFATLPWAQPKDAENELVRAVEKLGFKGALLNGRPSSCFLDHPDYDSLLSRFNKLNVPLYLHPGLPLKSVQQAYFTGFSAEVNARLSMFGWGWHHEAGIHLLRLMLSGAFDKYPNMQVISGHWGEMLPFWLQRLDDSLPLAATGLSRTLTRTFQEHVYVTPSGMLTLPHFKFIYELMGAERILFSVDYPYQTLDGVKTFIDSLPVNKAEKEAIAFRNAERLLGITA
modifications: Enterobacter aerogenes
B5: 57 (protein)
chain: MAKLICVEEHVLDPAVGAATQSLVRAEAPYLPDWGSRVLDGRHVADRSRPHVIAPSESARKALEMGEPRLADMDAASIDMQVLSYGGFPQLLPAAQAIDLNRAANDKLALAAQAHPARFAGFATLPWQAPEAAARELERAVKQLGLKGALINGRPGDTFLDDARYAPILAAFDELKVPLYVHPGLPLPAVQAPYYGGFERELSARLAMFAWGWHNEAGIQVVRMLLAGVFDRHPRLQLISGHWGEMVPFFLQRLEDSIPQEASGLQRPIVQTYREHVYISPSGMFTLPHFQFIHALMGAQRILYSIDYPYQSLDGARAFIERLPISDTDKALIAHRNAERLLHL
modifications: Collimonas fungivorans

Assays:
[1] = 14C assay with IPTG-induced recombinant E. coli cells: 14CO2 captured from [14C]-carboxyl-labeled dicamba; conditions: for decarboxylation activity of dicamba: among the 108 sequences tested, recombinant E. coli cells; for Enzymatic Detection level: dicamba decarboxylation activity of the protein of the given SEQ ID NO, High / Low / No; for Dicamba Decarboxylase Activity: induced recombinant E. coli cells, [14C]-carboxyl-labeled dicamba, 14CO2 capture
[2] = Saturation mutagenesis of SEQ ID NO:109: dicamba decarboxylation activity of point mutants (carbon dioxide released); conditions: decarboxylation activity (carbon dioxide released) of point mutant compared with unmutated backbone protein; backbone SEQ ID NO: 109

| Molecule | decarboxylation activity of dicamba [1] | Enzymatic Detection level [1] | Dicamba Decarboxylase Activity [1] | Fold Activity [2] |
| --- | --- | --- | --- | --- |
| B1 | showed decarboxylation activity of dicamba | High | High | 1.4 |
| B2 | showed decarboxylation activity of dicamba | High | High | 1.1 |
| B3 | showed decarboxylation activity of dicamba | High | High | 1.5 |
| B4 | showed decarboxylation activity of dicamba | High | High | 1.3 |
| B5 | showed decarboxylation activity of dicamba | High | High | 2 |
